Source: paper PMC4326362, “Non-canonical regulation of phosphatidylinositol 3-kinase gamma isoform activity in retinal rod photoreceptor cells” (Cell Communication and Signaling : CCS, 2015)

Key:
Assay in all cases: co-IP; Flag-tagged CTR-CNGA1 (wild type or mutant) and Myc-tagged RA domains co-expressed in HEK-293T cells; reciprocal immunoprecipitation with anti-Flag or anti-Myc antibodies (IgG as control), immunoblot, densitometry
Conditions in all cases: partners not purified
CTR-CNGA1 (D577N) = molecular target: T1, CTR-CNGA1 (D577N) (UniProt Q00194 483-690, D577N)
T1 construct: CNGA1 C-terminal region, residues 483-690, with D577N; Mutant of m1 made by site-directed mutagenesis; source: HEK-293T, transfected (pCDNA3), in lysate; not shown: FLAG, N-terminal, kept
T1 sequence (looked up): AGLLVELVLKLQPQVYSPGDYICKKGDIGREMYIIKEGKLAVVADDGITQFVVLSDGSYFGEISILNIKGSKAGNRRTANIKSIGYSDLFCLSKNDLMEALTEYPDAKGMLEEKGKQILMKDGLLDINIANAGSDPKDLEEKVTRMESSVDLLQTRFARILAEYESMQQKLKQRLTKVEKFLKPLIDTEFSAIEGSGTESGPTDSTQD

CTR-CNGA1 (E581Q) = molecular target: T2, CTR-CNGA1 (E581Q) (UniProt Q00194 483-690, E581Q)
T2 construct: CNGA1 C-terminal region, residues 483-690, with E581Q; Mutant of m1 made by site-directed mutagenesis; source: HEK-293T, transfected (pCDNA3), in lysate; not shown: FLAG, N-terminal, kept
T2 sequence (looked up): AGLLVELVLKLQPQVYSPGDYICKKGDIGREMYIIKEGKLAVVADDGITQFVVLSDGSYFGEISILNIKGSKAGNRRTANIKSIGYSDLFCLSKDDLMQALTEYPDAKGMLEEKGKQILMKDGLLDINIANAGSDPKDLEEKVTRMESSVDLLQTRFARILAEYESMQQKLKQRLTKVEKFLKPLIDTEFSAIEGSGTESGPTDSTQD

CTR-CNGA1 (D577,578 N) = molecular target: T3, CTR-CNGA1 (D577,578 N) (UniProt Q00194 483-690, D577,578 N | D577,578 N)
T3 construct: CNGA1 C-terminal region, residues 483-690, with D577N and D578N; Mutant of m1 made by site-directed mutagenesis; source: HEK-293T, transfected (pCDNA3), in lysate; not shown: FLAG, N-terminal, kept
T3 sequence (looked up): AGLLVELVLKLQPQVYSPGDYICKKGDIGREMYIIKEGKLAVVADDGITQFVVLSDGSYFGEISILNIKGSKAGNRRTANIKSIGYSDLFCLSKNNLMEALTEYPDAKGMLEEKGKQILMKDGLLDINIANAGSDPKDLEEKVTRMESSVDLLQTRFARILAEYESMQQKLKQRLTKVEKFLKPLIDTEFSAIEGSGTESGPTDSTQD

B1: Myc-tagged RA domain of PI3Kγ (residues 141-311) (domain or fragment, UniProt P48736 141-311, looked up)
chain: HPPSEESQAFQRQLTALIGYDVTDVSNVHDDELEFTRRGLVTPRMAEVASRDPKLYAMHPWVTSKPLPEYLWKKIANNCIFIVIHRSTTSQTIKVSPDDTPGAILQSFFTKMAKKKSLMDIPESQSEQDFVLRVCGRDEYLVGETPIKNFQWVRHCLKNGEEIHVVLDTPP
notes: also called RA-PI3Kγ; PI3Kγ-RA; source: HEK-293T, transfected (pCDNA3), in lysate
CTR-CNGA1 (D577N)
  percent disruption of the interaction against wild type: 30 percent
CTR-CNGA1 (E581Q)
  percent disruption of the interaction against wild type: 50 percent
CTR-CNGA1 (D577,578 N)
  percent disruption of the interaction against wild type: 45 percent
